Laboratory results reported in publication PMC3720700, “Structure of the SCAN Domain of Human Paternally Expressed Gene 3 Protein” (PLoS ONE, 2013).

B1: SCAN domain of human paternally expressed gene 3 protein (PEG3), amino acids 40-130 (domain or fragment)
chain: GHMTDSEFFHQRFRNLIYVEFVGPRKTLIKLRNLCLDWLQPETRTKEEIIELLVLEQYLTIIPEKLKPWVRAKKPENCEKLVTLLENYKEMYQP
notes: three non-native residues (Gly-His-Met) left at the N-terminus after TEV digestion; SCAN domain of human PEG3, amino acids 40-130 of UniProt Q9GZU2; theoretical mass of the construct 11,434 Da; Homodimer by gel filtration and in the crystal; The gene was synthetic (GenScript), in a modified pET15b vector; also called PEG3-SCAN; PEG3-SCAN domain; source: E. coli Bl21 (DE3) Gold, purified (HisTrap, …)
B2: human Siah1 without the RING domain (amino acids 91-282) (domain or fragment, UniProt Q8IUQ4 91-282, looked up)
chain: ANSVLFPCKYASSGCEITLPHTEKADHEELCEFRPYSCPCPGASCKWQGSLDAVMPHLMHQHKSITTLQGEDIVFLATDINLPGAVDWVMMQSCFGFHFMLVLEKQEKYDGHQQFFAIVQLIGTRKQAENFAYRLELNGHRRRLTWEATPRSIHEGIATAIMNSDCLVFDTSIAQLFAENGNLGINVTISMC
notes: human Siah1 without the RING domain, amino acids 91-282 of UniProt Q8IUQ4 (the results say residues 90-282); theoretical mass of a monomer 21,897 Da; The 15N-labelled form was used in the NMR experiment and the unlabelled form in gel filtration; it says only 'a similar protocol to that for PEG3-SCAN'; also called E3 ubiquitin-protein ligase Siah1; 15N-labeled Siah1; source: E. coli, purified by a …

Target: the molecule itself
Assay: SEC; gel filtration of the single purified protein, Superdex 75 16/60 calibrated with molecular weight standards; 50 mM Tris-HCl pH 7.5, 150 mM NaCl

Protein	stoichiometry N
B1	2
B2	2
